test: soluble fraction after stress (log2 fold change); higher = more stays soluble; pooled small domains, quantitative proteomics; conditions: stress: pH 4
Outline: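 Aggregation propensity here comes from the fold change in the soluble amount of each small protein domain after acid stress, measured in pooled custom libraries by high-throughput quantitative proteomics. The acid stress was pH 4. On the log2 scale, higher values mean more of the domain stayed soluble.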

Sequence	soluble fraction (log2)
HMTQGRVTGDGVNVRSQPNTDSAILTRVSTGKVVELISLKDNWYNVVVNGTKGYIRADYVSPYDG	0.00816
HMYMKTITEQFGERLKKIRTQKSLSQEQLSYLADIDRSYISDVERGARNISLENIYKLASALNIPPYLVLL	-0.344
HMGGEPKALLFAGVETREMAEITQRLEAADIPYEIREDGGSIYVARSEVFNARMMLSADGLPS	0.233
HMITKEDVANKKVNLLFFGNFHKMKLPDFEWGITEMMQDRDYLYGSLTKDLYFLGLVLDRKYKI	0.124
HMDDVVVLPFTAEFARMSSDDFVREILVGKIGMKRFVVGYNHRFGSGQQGDFASLQRMQGELGFVAVRVG	-0.479
HMLINPLDILRNFNLSLYDDSRDSASNKEIDEIFESIKTNNSHIFSTLKAYRIPLPIASLIIKKIIKITLE	-0.882
HMRTPLTGREEQVATLIGRGMTNSEIAESLSVDESTVKTHIGSILRKVHLRDRLQVALWFHGLPIE	-0.354
HMGVAFAPVEKIKHTKTGNELYAVKLAGRVEAEVFGQLRQKAKEYDGYYSKFSRAFLFSTPEDAEAFRAE	0.276
HMHFDQILAHAMDERGMNAVQLASLTGLSSGAISRYLAGDRQPTVYSIQQIAKALGVSADYLVG	0.22
HMLNENNHGEWSIRMSNGLVVRLGRDELNRSLRRSIMAYAGLAPNYRSSIEYIDARYLGGVALKTF	-0.159
HMVERLVVSPGAGVFAPNKAIANGTRISVGDVLGMVGEQEVRSLFDGVLQSFISVDGERLTAHQPVAWLRT	-0.111
HMPPNRDDEHLQALRDYYAANRRIPSLQRVASLLGFSSRSAAVKLMGRLADEGFIERTADDDAWITGKRFF	-0.371
HMSSLEQVYPNPVSSILKLNSFIKNYKILNATGHEVLKGSGNTINVGKLPSGSYFLITSENYSIKFIK	0.119
HMNTSSVTVHYQDEAGKSLADTVTLTGKVGETYSSEQKKITGYNFKEVRGNPKGQFTTEAQTVTYVYTQAA	-0.195
HMSEQVQLQAQVEDDLIGKRLDQVVAQLFPDYSRSRLQGWIKDGSLTVDGESRRPRDKMMGGEVVRVEATL	-0.347
HMEESEMIAFATVAHRIVGKPVEAVMRSYRNRDNIPADIAAIVSSKFTFSVTMAEASYRNPKKSYQVNSII	0.22
HMSSWMTKDGKIKPISKWAGVPMTSQQQADYAAGKVVELTNIPDKQGQLNTVYLKFNPEKQRPTTSLNDPR	0.22
HMESGNLIFTNAPIADVVNAIETRYGKKLQASNQTSDLQFTGIFKNTDEFSTVVKTIEIALGLQFEV	-1.37
HMWMEKEELLWNDIIRGGVERGELREDTDIQEAAALFRQVFIGLAYQMSFSDGLDVGILRKRFHHIYGLLT	-2.16
HMEPMTDQQILEGFAEFKRQNPDLMNRPATQAIVNLTLPGGTPISFRSGAGAAALNQYLESIGMRAGP	-0.0242
HMGELYGTDQYKDGDAQDTNIGKLLEVNIDGKWQVATTGTSRFEFAGVMDDNGHKLIMISVLPEAKTV	-0.647
HMVGNYYDILGVPETATQDAIKKAFRSLAQQHHPDKNPDDPGAEAMFKKVSEAYQVLSDPDKRQTYDASL	-0.0611
HMGGFNATTLQNIEELRRSLSDADQFGRHEVIETIGGSDSRAGKLLKKMLEAGIIEQVKGHGKGRYRFKRT	0.0979
HMRPRGTRLPTGWTPSSDALDWTKAEKPGLDPLQTLEKFRDYWTAQPGQKGVKTDWDATWRNWVRREIP	0.0989
HMQQLAEQIPTDRPYISIAEAVVLFGISRDTIYRQIRKGNIPAVNLGERLTRISRIHIEAMFPKV	-0.282

Sequence	soluble fraction (log2)
HMPIDQAKRKKEIIQNFGIRKIYKFSEIFDLKFGRDNIIVTFLIILDMIKEGVVEINENKEEIEFEYK	-0.04
HMSKPIYSELLREIRSGDVKELTLIPQRREVLVEYSDGRKATVSILANDQQVLRTAESAGVPLTVK	0.116
HMDSILMPGVVNKELREALAILKNEGIGWADPEYASSTVTRNYVISTDPVEGIELAPGQKVRLVVSLGPKP	0.153
HMEAFDYLGRRTRDLLERQGWTTVPLVRDAYLAVPGGERLLQVPGFGRKSLREVRRWLWLQIGDPRFE	0.114
HMPDLSEDEEKIVSLLRDNNDLNVNIIVMRTQLPSATVTSSLFSLELKGVVRMYAGGMYHLM	0.0385
HMGLKWVYYTNIEPDGNKINNQKLYDILKQKFVYPVIISRDELDSMELKDLTYDSYIDVEGRYFKPYNLD	-2.03
HMYSNDEIVNYLKNYIFDNFNLNELSDEELEEKIAELVQQQFAGQLLSLDEKVKLVNQVYSSIR	-0.139
HMATNVLEISTRNKNILIQDSLNLVESFYSKSDNQYWYKLVFKTKDDLNKFLQEVSEDENTITYKTSSI	-0.194
HMKRTLLLEGRTIPYELTQKPVKNINIRVHADGSVRVSAGPWVSPEAVDAVLRQRSAFLLRALDQFAAQAP	-0.923
HMVELGMSQNEFIQKFGKPFNKEMAYTYDKHKRETLFYKEDLYRGSWFIVTTAFTFVDSKLVSQEIVREER	-0.349
HMDNIPAHIKAKIINYVNRNYPGAIIKDIERKSNGRYEAEIVYNNREYDLLFDAQGNFISASLDDK	-0.32
HMLLSEPSVLKFNDDNSYEIVSGFLTEYKDKIVKIERRYKKATVKITVAGEEKEIKVSFVEDTE	-1.13
HMGIEQVELASRVRDAVDSLPHHLREIILLSYFQKMSYNQIAETLQVPLGTVKSRLHAAVASFAQAWTQSS	-0.658
HMQDPRITRTRGLILQAFDALLVEKGFHALSVQAIAGRAGINRATFYAHFADKYALLDTSIQE	0.081
HMKESFAQLFSLLTPTEQKVAALISQGFSNKDIAAKMFISLSTVKTHTNHIFAKMGVANRNALVAKVNN	-0.0677
HMNSNQESFENWLSANSWYNKDRAMRVFADSLGQELRNSGVSFEKALTQISAEVRKEFSHKFQ	-0.213
HMLDTPLTARELDVLYLMRQRMSAKEIAKQLGIATMTVNRHAANLYRKLGVNTRWDAVYRAEEVGILPP	-0.592
HMISAVDLMAARRKIEAGITNLQPGQAFTLPNKVGWVKRMTGGSYFIQGNGGYTASVRTISEAIQAAAMLL	-0.0224
HMSQLLHELLAHVLKDRIISGEWPAGSRIMSEHALQERYGVSRGTVRRALAQLVQEGLLVQRKGKGTFVTR	0.35
HMSLPNNLIEQLQDPEPKARRRAVRRLAATRDPSAIPLLRNVYLQDGDDRVRDAAEAALVQFRAMQHN	0.104
HMLGDAWSMLILRDAHSGFSRFDQFRKSLGIAPTMLTKRLSVLVDEGLLEKRQYSEHPPREEYVLTQAGQD	0.149
HMSVTRELMLVKVKVTPEQRAGVSAIVDIFRANIIDVGKESMIIELTGNKSKLEAFIDLLDGYEILELART	-0.865
HMVSTGIMVVDGRGSVLQHNEAALRQLGVEVLTFESQVKEKLASEDFSVRETTAMLNGKKVRIIAFSDIR	-1.66
HMSQSYHLADRGQSLGTLDYQAVLVGLATGRLSPDTLSWQEGEAGWVALRQRPEFASGVSAVASL	-0.753
HMKIDLPIWLNKKAWEAWVEYKKERKQKLTPSIIKFQLRILEKNKEDHPEIIRNSITNGWTGLFPLK	-0.347

Sequence	soluble fraction (log2)
HMTGTKEQQVVMLNNILQKQLQAFELQGKRDYPMVTMKNMYNTLSKMVENAGLQTVESYFVDPIKGQQM	-0.266
HMASDLPTVTIMGKTFYTYVAKKGESFFGIANRFGWDPELLVKTNRELETPLDKGALIYYPVPKKPK	-0.521
HMEDTFEYPVSVNGKLRFKIELPVSMEKDEIRNIVLNDERAKKWLATGTLTNLIVVPNRIINIVIK	0.0025
HMGTYSKQDLLQLIGRYPDGIGKREINLAFSKGTKIRNLLNIELNELLNERLITLSQGGLYIKP	≥ 0.43
HMGIAKLLTEQEYKIALLAAERRTNAMIAEEMNLTENTVKTHLKHIFDKVGIAGNAKNKRHLLADMMNSER	0.0405
HMNPYQDSILLWKSFDTPLTNEDFMGLSKEELRIARNEIYAAYGRIFTSQDLIDYFNSKPWYQGTTPA	-0.883
HMEKKGTVVIATVKGDIHDIGKNIVKVLLENYGFDVIDLGKDVPPEAVVEAVQQSGARLVGLSALM	-0.577
HMKEGGGYGQLRLKEAAIQHAFDLQNALQFIAERGYQAHENTTLKEAANALNLKPIELLELLKSSQ	-0.574
HMHSVIALTIPADYAGLRLDQALAKLLPNWSRSRLQTWIAENRVILDGQITTIKQKVWGNELIQISPQD	-0.252
HMRGLLSQREHDVLDLVARGFSYGEIARLRSISVSTVQTHIKNLYRKLAVSSRTEAVYEAKQMGI	-0.755
HMKNTADRVYENLFHMLVSGDYAPGDRIPSEHELKERFNVSRNTIRAALNRMNALGIIETRQGDGTYLKG	-0.147
HMAEKNALWEEDAVYAADSSALARDGYDAIVRTDKGGKKGYLVVGTGGRERFMPLQTLVMLGYLKK	-0.0478
HMDKEQVTFIFRDIDIALRSLDYPIKDIKNTLNIIKSEFSNSKSTELNEQKINFENILKEAISILENND	-0.969
HMRSTIYEFTVPPGQLESIRLDVYITSFVENATRSKVQEAIKQGYVWVNGKHEKASYTMLPGDKIYIELPI	-0.497
HMNYTSEDIKLASELFFHLLNNRILPANDVLASQYYDNNEIREILENMAEEGGLRIFGTRENLHLVSNGE	-1.21
HMLPQGKGTAMWLADHLAAASVTLDAGARKLLEDTLGEDMSRLPGVLRVLEATFGSDAGRLSAEDIEPFL	-1.05
HMSSLSGVRRTLLDSLGMPPDASDEELADRREELRGSLDTAPQARRKWIEQQLARIDAITALDASG	-0.0243
HMKEAISIYPNPVKDILTIRGMDETSGVSFKLYDVTGNLLLESTHSELDMSGLNRGVYFLDIAGDVRKVVK	-1.07
HMLTAHEAILKELRKMLLTGVLSPGEAVRPEIIGESFGVSAVPVREALRILEGEGQVLNRPHKGYVVT	-0.482
HMTDPVLYEERDDIAIITINRPEKKNTLTDAVIQGIADGIDAATKSADVVAVVLRGAGDTLTAGYDLTA	-1.28
HMQTMTDDQVMQYVISQQEKGATQQDIVSKLLQKGVTVDQMRRIRKKYEAQQSQPGALDLTGSS	-0.0786
HMFPDRLRELRKGRNITLETLAEEMNKHLEPGQKPNTAAQIGNWERGDRSPSYIEVRKLADFFNVSMDFL	-0.512
HMGDLLTVDRVAATSGLGVDTIRYYQRLGLLDPPVRHGRRALYSTAHLDRLVEIRQLADEGFSLAQIATL	-0.816
HMDAPKTGSLVVSKAVNYGSWSGFTFRLHGTSDKGNSVDVTATTGSDGKAYFKDIEIGTYTLEEVN	-1.19
HMYMLYQQLADSLRDKIYEGTYTFGDKIPSERTLAATFGISHLTVRKALAILEEEGLLDRRQGNGTFVRV	-0.693
